Experimental data taken from the nanobody polyreactivity screen of Harvey et al. (2022).

Assay: yeast display, Sf9 membrane polyspecificity reagent, FACS + sequencing; frameworks hold sequencing errors
Method in brief: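 Synthetic nanobody libraries on Saccharomyces cerevisiae BJ5465 were galactose-induced for 36–48 hours, stained 1 hour at 4 °C with 10% biotinylated, detergent-solubilized Sf9 membrane reagent and enriched on streptavidin microbeads. FACS then separated cells into low and high (top ~1%) gates by anti-HA (expression) and streptavidin (reagent binding) fluorescence. Genes were colony-PCR amplified, MiSeq 2 × 250 sequenced and CDR-length filtered. A clone's polyreactivity label is that of its gate of origin.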

| Sequence | polyreactivity (PSR sort gate) |
| --- | --- |
| QVQLVESGGGLVQAGGSLRLSCAASGRTQTRYTMGWYRQAPGKERELVATISRSGGNTHYADSLKGRFTISRDNAKNTVYLQMNSLKPEDTEVYYCNAVRYAIYGYDYWGQGTQVTVSS | high polyreactivity |
| QVQLVESGGGLVQAGGSLRLSCAASGFIFDEYAMGWYRQAPGKERELVAAISWSGSRTYYADSVKGRFTISRDNAKNTVYLQMNRLKPEDTSVYYCAKVTGVVAGRRNYWGQGTQVTVSS | low polyreactivity |
| QVQLVESGGGLVQAGGSLRLSCAASGYTFYANAMGWYRQAPGTEREFVASITWSGGSTYYADSVKGRFTISRDNAKNTVYLQMNSLKPEDTAVYYCAAESWFKYDYWGQGTQVTVSS | low polyreactivity |
| QVQLVESGGGLVQAGGSLRLSCAASGSTFWYNAMGWYRQAPGKERELVASITLSGARTYYADSVKGRFTISRDNAKNTVYLQMNSLKPEDTAVYYCAKRTGRVKYYYWGQGTQVTVSS | high polyreactivity |
| QVQLVESGGGLVQAGGSLRLSCAASGITFYLYAMGWYRQAPGKERELVAAISSSGGRTYYADSVKGRFTISRDNAKNTVYLQMNSLKPEDTAVYYCAARRYGVPPTYDYWGQGTQVTVSS | high polyreactivity |
| QVQLVESGGGLVQAGGSLRLSCAASGIIFHGYAMGWYRQAPGKERELVAAITNSGGRTYYADSVKGRFTISRDNAKNTVYLQMNSLKPEDTAVYYCAADGHKYRMDYWGQGTQVTVSS | low polyreactivity |
| QVQLVESGGGLVQAGGSLRLSCAASGIIFSSYAMGWYRQAPGKERELVAAITSGGSTNYADSVKGRFTISRDNAKNTVYLQMNSLKPEDTAVYYCATVHAKPYYYWGQGTQVTVSS | low polyreactivity |
| QVQLVESGGGLVQAGGSLRLSCAASGFTFSRYTMGWYRQAPGKERELDAAINRRGGSTYYADSVKGRFTISRDNAKNTVYLQMNSLKPEDTAVYYCAATYTVRSGNGIANDYWGQGTQVTVSS | high polyreactivity |
| QVQLVESGGGLVQAGGSLRLSCAASGFTFPYYAMGWYRQAPGKERELVAAISKSGGSTYFADSVKGRFTISRDNAKNTVYLQMNSLKPEDTAVYYCAAQGGSKYRGYYYWGQGTQVTVSS | high polyreactivity |
| QVQLVESGGGLVQAGGSLRLSCAASGLIFSWYAMGWYRQAPGKERELVAAITGSGGRTYYADSVKGRFTISRDNAKNTVYLQMNSLKPEDTAVYYCAALYTARYDYWGQGTQVTVSS | high polyreactivity |
| QVQLVESGGGLVQSGGSLRLSCAASGINFLYYAMGWYIQAPGKERELVARINRSGGSTYYADSVKGRFTISRDNAKYTVYLQMNSLKPEDSAVYYCAADYLYRSPAYEHYYWGQGTQVTVSS | high polyreactivity |
| QVQLVESGGGLVQAGGILRLSCAASGSTFFSNTKGWYRQAPGKERELVAAITDSGTSTYYADSVKGRFTISRDIAKNTVYLQMNSLKPEDTAVYYGDAYPSGWYDYWGHGTQVTVSS | low polyreactivity |
| QVQLVESGGGLVQAGGSLRLSCAASGNTLTPYTMGWYRQAPGKERELVAAINRSGGSTYYADSVKGRVTISRDNGKNTVYLQMNSLKPEDTAVYYCAAFGYYNFGYYYWGQGSQVTVSS | high polyreactivity |
| QVQLVESGGGLVQAGGSLRLSCAASGRIFYRYAMGWYRQAPGKERELVAAITGSVGSTYYADSVKGRFTISRDNAKNTVYLQMNSLKPEDTAVYYCAREYHGDSRRYDYWGQGTQVTVSS | high polyreactivity |
| QVQLVESGGGLVQAGGILRLRCAASGSTYGYYAMGWSRQAPGKERELVAAISGSGGRTYYADSVKGRFTISRDNAKNTVYLQMNSLKPEDTAVYYCNTATKNIYDYCGQGTQVTVSS | high polyreactivity |
| QVQLVESGGGLVQAGGSLRLICAASGSIFRYYAMGWYRQAPGKERELVATISWSGGGTYYADSVKGRFTISRHNAKNTVYLQMNSLKPEDTAVYYCAADYGEQYVYWGQGTQVTVSS | low polyreactivity |
| QVQLVESGGGLVQAGGSLLLSCAASGITFFTYAKGWYRQAPGKERELDAAISGSGGSTYYADSVKGRFTISRDNAKKTVYLQMNSLKPEDTAVYYCAAERENGDHYRYYYWGQGTQVTVSS | low polyreactivity |
| QVQLVESGGGLVQAGGSLRLSCAASGRIFLGNAMGWYRQAPGKERELVAAITNGGGSTYYADSVKGRFTISRDTAKNTVYLQMNSLKPEDTAVYYCARGYKKSVQRFEYWGQGTQVTVSS | high polyreactivity |
| QVQIVESGGGLVQAGGSLRLSCAASGSTFWYNAMGWYRQAPGKERELVAAITWTGDGTYYADSVKGRFTISRDNAKNTVYLQMNSLKPEDTAVYYCAAAYFQWSTSIVGLDAGYDYWGQGTQVNVSS | low polyreactivity |
| QVQLVESGGGLVQAGGSLRISCAASGIIFKQNVMGWYRQAPGKERELVAAITSRDGSTYYADSVKGRFTISRDNAKNTVYLQMNSLKPEDTAVYYCAANWRSPRYYLYGYWGQGTQVTVSS | high polyreactivity |
| QVQLVESGGGLVQAGGSLRLSCAASGSIFQWNAMGWYRQAPGKERELVAAISSGTSTNYADSVKGRFTISRDNAKNTVYLQMNSLKPEDTAVYYCAAEGRGWAAFEVGYWGQGTLVTVSS | low polyreactivity |
| QVQLEESGGGLVQAGGSLRLSCAASGRTFRINAMGLYRQAPGKERELVAAIRSRAGSTYYADSVKGRFTISRDNAKNTVYLQMNSLKPEDTAVYYCAAKLPFDVDYWGQGTQVTVSS | high polyreactivity |

| Sequence | polyreactivity (PSR sort gate) |
| --- | --- |
| QVQLVESGGGLVQAGGSLRLSCAASGGIFWYYTRGWYRQAPGKERELVATISSGGRTYYADSVKGRFTISRDNAKNTVYLQMNSLKPEDTAVYYCAKSYRRRQGYSYWGQGTQVTVSS | high polyreactivity |
| QVQLVESGGGLVQAGGSLRLSCAASGSTLSTYVMGWYRQAPGKERELVAAITRRGGITYYADSVKGRFTISRDNAKNTVYLQMNSLKPEDTAVYYCNRLRYPHTFQTGGYWGQGTQVTVSS | high polyreactivity |
| QVQLVESGGGLVQAGGSLRLSCAASGRTFRYNDMGWYRQAPGKERELVADITFSGGNTYYADSVKGRFTISRVNAKNTVYLQMNSLKPEDTAVYYCAKRRYYTGGMDYWVQGTQVTVSS | low polyreactivity |
| QVQLVESGGGLVQAGGSLRLSCAASGRIFDIYAMGWYRQAPGKERELVAGITSVGSTNYADSVKGRFTISRDNEKNTVYLQMNSLKPEDTAVYYCAAKAYFSTSPYHREHDSWGQGTQVTVSS | low polyreactivity |
| QVQLVESGGGLVQAGGSLRLSCAPSGRTFVHYTMGWYRQAPGKERELVAAISGTGTSTYYADSVKGRFTISRDNAKNTVYLQMNSLKPEDTAVYYCARRYWYPDAFYRYDYWGQGTQVTVSS | low polyreactivity |
| QVQLVESGGGLVQEGGSLRLSCAASGITFDYYAMGLYRQAPGKERELVASISYSGGSTYADSVKGRFTISRDNAKNTVYLQMNSLKPEDTAVYYCAKDSQETAYNTVDYCGQGTQVTVSS | low polyreactivity |
| QVQLVESGGGLVQAGGSLRLSCAASGSIIDINALGWYRQAPRKERDLVAAISLSAGSTYYADSVKGRFSISRDNAKNTVYLQMNSLKPEDTAVYYGAAERGGRGTLRNRYDYWGQGTQVTVSS | low polyreactivity |
| EVQLVESGGGLVQPGGSLRLSCAASGYIYSRYRMGWYRQAPGKGREFVAAISGGSSTNYADSVKGRFTSSRDNSKNTVYLQMNSLRAEDTAVYYCAAYKIDSDQRVYWGQGTQVTVSS | low polyreactivity |
| QGQLVEAGGGLVQAGGSLRLSCAASGNTFKKYARGWYRQAPGKERELVAAISNGGSTTYADSVKGRFTISLDTAKNTVYLQMNSLKPEDTAVYYCNAGRPYGTQKRYDYWGQGTQVTVSS | low polyreactivity |
| QVQLVESGGGLVQAGGSLRLSCAASGITIKRYAIGWYRQAPGKEREFVATISQSGTSTYYADSVKGRFTISRDNAMNTVYLQMNSLKPEDTAVYYCAADYIGYWYGYYSWGQGTQVTVSS | low polyreactivity |
| QVQLVESGGGLVQAGGSLRLSCAASGSIFLANAMGWYRQAPGKERELVAAINYADSVKGRFTISRDNAKNTVYLQMNSLKPEDTAVYYCYSKYDYWGQGTQVTVSS | low polyreactivity |
| QVQLVESGGGLVQAGGSLRLSCAASGSTFLNYAMGWYRQAPGKERELVASISYSAGSTYYADSVKGRFTISRDNAKNTVYLQMNSLKPEDTAVYYCAARLARAGYWRRNYYYWGQGTQVTVSS | high polyreactivity |
| QVQLVESGGGLVQAGGSLRLSCAASGLTFANYVMGWYRQAPGKERELVAAISGGGGSTHYADSVKGRFTISRDNAKNTVYLQMNSLKPEDTAVYYCNADKYSVYGEHPYDYWGQGTQVTVSS | low polyreactivity |
| QVQLVESGGGLVQAGGSLRLSCDASGFIFYGYVMGWYRQAPGKERELVAAITIGGSTNYADSVKGRFTISRDNAKNTVYLQRNSLKPEDTAVYYCAADQRSVTVGMDSWGQGTQVTVSS | low polyreactivity |
| QVQLVESGGGLVQAGGSLRLSCAASGFTFYSYAMGWYRQAPGKERELVATITASGGSTYYADSVKGRFTISRDNAKNSVYLQMISLKPEDTAVYYCAAYHPHGFDYYRYYYWGQGTQVTVSS | high polyreactivity |
| QVQLVESGGGLVQAGGSLRLSCAASGRIFRTYAMGWYRQAPGKERELVAAISGRGGNTYYADSVKGRFTSSRDNAKNTVYLQMNSLKPEETAVYYCAASKPARDTQQRWVYAGYDYWGQGTQVTVSS | high polyreactivity |
| QDQLVESGGGLVQAGGSLRLSCAASGSIFTFNTMGWYRQAPVKERELVATISSGGRTYYADSVKGRFTISRDNAKNTVYLQMNSLKPEDTSVYYCNKGYYGYTYVEYNYWGQGTQVTVSS | low polyreactivity |
| QVQLVESGGGLVQAGGSLRLSCAASGSTFHRNAMGWSRQAPGKERELVAAISFSGGRTYYADSVKGRFTISRDNAKNTVNLQMNSLKPEDTAVYYCAAVTASPGSYPDDYWGQGTQVTVSS | low polyreactivity |
| QVQLVESGGGLVQAGGSLRLSWAASGFTFYRYAMGWYRQAPGKERELVAAITRSGSRTYYADSVKGRFTISRDNAKNTVYVQMNSLKPEDTAVYYCNTDGGDHPTARYGYWGQGTQVTVSS | high polyreactivity |
| QVLLVESGGGLVQAGGSLRVSCAASGFTFYGYAMGWYRQAPGKERELVAARSSTGGRTYYADSVKGRFTISRDNAKNTVYLQMNSLKPEDTAVYYCNKVWRFAEHNYWGQGTQVTVSS | high polyreactivity |
| QVQLVESGGGLVQAGGSLRLSCAASGSTFFYNAMGWYRQAPGKERELVAAISRGGGITYYADSVKGRFTISRDNAKNTVYLQMNSLKPEDTAVYYCQYLSRGLNTYRSSQGDDDYWGQGTQVTVSS | high polyreactivity |
